Results published in patent US8043804 (TRUSTEES OF COLUMBIA UNIVERSITY IN THE CITY OF NEW YORK, dated 2011).

What was measured:
[1] = biological target: T1, DBC1 (Deleted in Breast Cancer 1) protein (human, UniProt Q8N163 1-923); assay: anti-Flag immunoprecipitation from transfected 293 cells, Western blot for endogenous DBC1
T1 construct: Endogenous protein of HeLa, U2OS and 293 cells (about 140 kDa band), or expressed from a vector without a stated tag in H1299 cells; also called endogenous DBC1
T1 sequence (Q8N163 whole entry): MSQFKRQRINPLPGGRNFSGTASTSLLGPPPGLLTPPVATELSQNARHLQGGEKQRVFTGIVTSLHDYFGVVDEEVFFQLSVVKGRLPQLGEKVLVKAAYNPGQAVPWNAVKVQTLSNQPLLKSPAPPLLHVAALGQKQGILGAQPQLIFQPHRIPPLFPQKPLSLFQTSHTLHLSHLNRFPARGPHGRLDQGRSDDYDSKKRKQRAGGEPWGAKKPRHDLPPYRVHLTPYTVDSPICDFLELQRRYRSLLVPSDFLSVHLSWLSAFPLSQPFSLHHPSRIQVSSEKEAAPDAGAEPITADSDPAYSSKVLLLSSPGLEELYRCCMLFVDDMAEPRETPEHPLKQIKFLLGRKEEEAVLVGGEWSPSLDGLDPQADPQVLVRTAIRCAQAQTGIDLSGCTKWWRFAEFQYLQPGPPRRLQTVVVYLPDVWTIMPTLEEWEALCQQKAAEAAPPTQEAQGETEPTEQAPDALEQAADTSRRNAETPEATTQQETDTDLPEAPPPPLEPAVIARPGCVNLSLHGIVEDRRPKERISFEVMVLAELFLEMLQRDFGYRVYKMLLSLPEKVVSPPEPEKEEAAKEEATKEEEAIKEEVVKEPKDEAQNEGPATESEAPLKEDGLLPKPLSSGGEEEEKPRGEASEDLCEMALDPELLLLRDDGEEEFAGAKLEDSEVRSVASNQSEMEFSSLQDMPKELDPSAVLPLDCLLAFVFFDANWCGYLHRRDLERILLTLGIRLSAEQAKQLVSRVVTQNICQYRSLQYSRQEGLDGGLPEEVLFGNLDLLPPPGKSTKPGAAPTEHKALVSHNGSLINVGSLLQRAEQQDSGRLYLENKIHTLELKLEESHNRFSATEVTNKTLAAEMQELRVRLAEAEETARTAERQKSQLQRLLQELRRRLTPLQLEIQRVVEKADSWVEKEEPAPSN
Experimental: (§1) Next, whether SIRT1 binds DBC1 in vitro was tested. […] The N-terminus of DBC1 as the SIRT1 binding domain was identified (FIG. 7). Since the enzymatic core sequence represents the most conserved region of mammalian SIRT protein family, whether DBC1 interacts with other members of this family was determined. Flag-tagged derivatives of the seven human SIRT polypeptides (SIRT1-7) were each expressed in 293 cells and extracts of the transfected cells were immunoprecipitated with the α-Flag antibody. […] Although similar expression levels for all seven Flag-SIRT polypeptides were detected, none of the other SIRT proteins (SIRT2, SIRT3, SIRT4, SIRT5, SIRT6 and SIRT7) were able to co-immunoprecipitate DBC1 (lanes 3-8, FIG. 2d).

[2] = biological target: T1, DBC1 (Deleted in Breast Cancer 1) …; assay: M2 immunoprecipitation of Flag-tagged SIRT family members from 293 cells, Western blot (FIG. 2d)
Experimental: as §1

[3] = biological target: T2, SIRT1 (Silencing mating type information regulator 2 homolog) (human, UniProt Q96EB6 2-747); assay: affinity-purified SIRT1 complexes from HeLa extracts, Western blot
T2 construct: Endogenous protein of HeLa and U2OS cells, or expressed from a vector without a stated tag in H1299 cells; also called endogenous SIRT1; Sir2
T2 sequence (looked up): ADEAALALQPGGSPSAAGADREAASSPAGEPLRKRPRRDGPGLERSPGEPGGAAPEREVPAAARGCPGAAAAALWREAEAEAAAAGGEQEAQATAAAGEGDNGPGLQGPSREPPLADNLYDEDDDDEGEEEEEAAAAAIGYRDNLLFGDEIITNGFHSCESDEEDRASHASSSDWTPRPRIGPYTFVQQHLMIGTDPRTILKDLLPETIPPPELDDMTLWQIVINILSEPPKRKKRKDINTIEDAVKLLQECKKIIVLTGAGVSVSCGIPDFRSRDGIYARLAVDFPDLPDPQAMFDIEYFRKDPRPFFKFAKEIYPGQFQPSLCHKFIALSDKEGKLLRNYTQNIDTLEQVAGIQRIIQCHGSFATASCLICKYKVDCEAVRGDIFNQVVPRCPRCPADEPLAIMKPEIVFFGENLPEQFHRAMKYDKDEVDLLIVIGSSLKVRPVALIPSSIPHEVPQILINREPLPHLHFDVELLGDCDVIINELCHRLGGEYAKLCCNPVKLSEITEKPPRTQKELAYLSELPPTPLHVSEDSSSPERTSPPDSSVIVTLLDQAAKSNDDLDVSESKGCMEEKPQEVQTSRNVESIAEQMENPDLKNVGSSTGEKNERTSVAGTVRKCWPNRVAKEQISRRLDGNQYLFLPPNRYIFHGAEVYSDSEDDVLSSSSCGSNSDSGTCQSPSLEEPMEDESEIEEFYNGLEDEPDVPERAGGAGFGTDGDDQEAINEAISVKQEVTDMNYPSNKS
Experimental: Figure 1: FIG. 1. Identification of DBC1 as a major component of the SIRT1 complexes in human cells. (a) Colloidal-blue staining of affinity-purified SIRT1 complexes from HeLa extracts with the α-SIRT1 antibody column (lane 2) and a control elute from the same extract with a control antibody column (lane 3). Specific SIRT1 interacting proteins were analyzed by mass spectrometry. (b) Western Blot of input (lane 1), control IP (lane 2) and α-SIRT1 antibody IP (lane 3) for the known SIRT1 interacting protein 14-3-3σ (lower panel) and SIRT1 (upper panel) to verify specificity of the analyzed SIRT1 complex. (c) Schematic representation of the DBC1 protein.

[4] = biological target: T3, ^35S-labeled in vitro-translated DBC1 (human, UniProt Q8N163 1-923, labelled by incorporation of ^35S-Methionine); assay: GST pull-down, autoradiography
T3 construct: also called ^35S-DBC1; pCIN4-DBC1 product
T3 sequence (Q8N163 whole entry): as the sequence (Q8N163 whole entry) above
Experimental: as §1

Binder	binding result [1]	binding result [4]	other results
Flag-SIRT7 (enzyme, human, UniProt Q9NRC8 1-400, looked up, not shown: Flag tag) MAAGGLSRSERKAAERVRRLREEQQRERLRQVSRILRKAAAERSAEEGRLLAESADLVTELQGRSRRREGLKRRQEEVCDDPEELRGKVRELASAVRNAKYLVVYTGAGISTAASIPDYRGPNGVWTLLQKGRSVSAADLSEAEPTLTHMSITRLHEQKLVQHVVSQNCDGLHLRSGLPRTAISELHGNMYIEVCTSCVPNREYVRVFDVTERTALHRHQTGRTCHKCGTQLRDTIVHFGERGTLGQPLNWEAATEAASRADTILCLGSSLKVLKKYPRLWCMTKPPSRRPKLYIVNLQWTPKDDWAALKLHGKCDDVMRLLMAELGLEIPAYSRWQDPIFSLATPLRAGEEGSHSRKSLCRSREEAPPGDRGAPLSSAPILGGWFGRGCTKRTKRKKVT	no binding		
Flag-SIRT2 (enzyme, human, UniProt Q8IXJ6 1-389, looked up, also called F-SIRT2; not shown: Flag tag) MAEPDPSHPLETQAGKVQEAQDSDSDSEGGAAGGEADMDFLRNLFSQTLSLGSQKERLLDELTLEGVARYMQSERCRRVICLVGAGISTSAGIPDFRSPSTGLYDNLEKYHLPYPEAIFEISYFKKHPEPFFALAKELYPGQFKPTICHYFMRLLKDKGLLLRCYTQNIDTLERIAGLEQEDLVEAHGTFYTSHCVSASCRHEYPLSWMKEKIFSEVTPKCEDCQSLVKPDIVFFGESLPARFFSCMQSDFLKVDLLLVMGTSLQVQPFASLISKAPLSTPRLLINKEKAGQSDPFLGMIMGLGGGMDFDSKKAYRDVAWLGECDQGCLALAELLGWKKELEDLVRREHASIDAQSGAGVPNPSTSASPKKSPPPAKDEARTTEREKPQ	no binding		
Flag-SIRT1 (enzyme, human, UniProt Q96EB6 1-747, looked up, Expressed in 293 or H1299 cells, immunoprecipitated with M2 anti-Flag beads; also called F-SIRT1; Flag-tagged SIRT1; not shown: Flag tag) MADEAALALQPGGSPSAAGADREAASSPAGEPLRKRPRRDGPGLERSPGEPGGAAPEREVPAAARGCPGAAAAALWREAEAEAAAAGGEQEAQATAAAGEGDNGPGLQGPSREPPLADNLYDEDDDDEGEEEEEAAAAAIGYRDNLLFGDEIITNGFHSCESDEEDRASHASSSDWTPRPRIGPYTFVQQHLMIGTDPRTILKDLLPETIPPPELDDMTLWQIVINILSEPPKRKKRKDINTIEDAVKLLQECKKIIVLTGAGVSVSCGIPDFRSRDGIYARLAVDFPDLPDPQAMFDIEYFRKDPRPFFKFAKEIYPGQFQPSLCHKFIALSDKEGKLLRNYTQNIDTLEQVAGIQRIIQCHGSFATASCLICKYKVDCEAVRGDIFNQVVPRCPRCPADEPLAIMKPEIVFFGENLPEQFHRAMKYDKDEVDLLIVIGSSLKVRPVALIPSSIPHEVPQILINREPLPHLHFDVELLGDCDVIINELCHRLGGEYAKLCCNPVKLSEITEKPPRTQKELAYLSELPPTPLHVSEDSSSPERTSPPDSSVIVTLLDQAAKSNDDLDVSESKGCMEEKPQEVQTSRNVESIAEQMENPDLKNVGSSTGEKNERTSVAGTVRKCWPNRVAKEQISRRLDGNQYLFLPPNRYIFHGAEVYSDSEDDVLSSSSCGSNSDSGTCQSPSLEEPMEDESEIEEFYNGLEDEPDVPERAGGAGFGTDGDDQEAINEAISVKQEVTDMNYPSNKS			binding result [2]: binds
14-3-3σ (other, human, UniProt P31947 1-248, looked up) MERASLIQKAKLAEQAERYEDMAAFMKGAVEKGEELSCEERNLLSVAYKNVVGGQRAAWRVLSSIEQKSNEEGSEEKGPEVREYREKVETELQGVCDTVLGLLDSHLIKEAGDAESRVFYLKMKGDYYRYLAEVATGDDKKRIIDSARSAYQEAMDISKKEMPPTNPIRLGLALNFSVFHYEIANSPEEAISLAKTTFDEAMADLHTLSEDSYKDSTLIMQLLRDNLTLWTADNAGEEGGEAPQEPQS			binding result [3]: binds
GST-SIRT1-NT (other, human, UniProt Q96EB6 1-210, looked up, domain: N-terminal; also called N-terminus of SIRT1; N-terminal domain of SIRT1; not shown: glutathione S-transferase (GST) fusion partner) MADEAALALQPGGSPSAAGADREAASSPAGEPLRKRPRRDGPGLERSPGEPGGAAPEREVPAAARGCPGAAAAALWREAEAEAAAAGGEQEAQATAAAGEGDNGPGLQGPSREPPLADNLYDEDDDDEGEEEEEAAAAAIGYRDNLLFGDEIITNGFHSCESDEEDRASHASSSDWTPRPRIGPYTFVQQHLMIGTDPRTILKDLLPETI		no binding	
GST-SIRT1-CT (other, human, UniProt Q96EB6 500-747, looked up, domain: C-terminal; also called C-terminus of SIRT1; C-terminal domain of SIRT1; not shown: glutathione S-transferase (GST) fusion partner) LCCNPVKLSEITEKPPRTQKELAYLSELPPTPLHVSEDSSSPERTSPPDSSVIVTLLDQAAKSNDDLDVSESKGCMEEKPQEVQTSRNVESIAEQMENPDLKNVGSSTGEKNERTSVAGTVRKCWPNRVAKEQISRRLDGNQYLFLPPNRYIFHGAEVYSDSEDDVLSSSSCGSNSDSGTCQSPSLEEPMEDESEIEEFYNGLEDEPDVPERAGGAGFGTDGDDQEAINEAISVKQEVTDMNYPSNKS		no binding	
